Consider one substance from patent US20150344565A1.

Experiment [1] deals with Glycosylated recombinant human GM-CSF expressed from human 293 cells (human) (UniProt P04141). Kind of experiment: SPR (Biacore 3000) at 37 °C, antibody captured on anti-human F(ab')2, GM-CSF as analyte, 1:1 global fit. Background: In SPR one partner is held on a chip, and binding of the other changes the refractive index at the surface.
For experiment [2] the target is unchanged. In words: ELISA on GM-CSF-coated wells, glycosylated GM-CSF, exp 1.
For experiment [3], the target named is Non-glycosylated recombinant human GM-CSF expressed in E. coli (human) (UniProt P04141). Kind of experiment: ELISA on GM-CSF-coated wells, non-glycosylated GM-CSF, exp 1. In general terms: ELISA stands for enzyme-linked immunosorbent assay.
The target is the same in experiment [4]. In words: cell-based or functional assay.
The target is the same in experiment [5]. In words: ELISA on GM-CSF-coated wells, non-glycosylated GM-CSF, exp 2.

The term Kd denotes the free concentration of one partner at which half of the binding sites on the other are occupied at equilibrium, for simple one-to-one binding. What is called koff is a measure of how fast the partners let go of each other. Usually kon stands for the rate constant with which the complex forms. As a reminder, the EC50 is the concentration that produces a half-maximal response.

“And” between values parts separate entries of the source, which are not always exact repeats. Equal entries are not always repeated.

On to “Ab2, chimeric IgG1k antibody having variable regions from the mouse antibody LMM102”, for which, in experiment [1], the Kd turned out to be 30.5 pM, the koff amounted to 2.2e-05 s⁻¹ and the association rate constant (kon) was found to be 720000 M⁻¹ s⁻¹. Also, in experiment [2], the EC50 is 387 pM. In addition, in experiment [3], the EC50 stood at 400 pM. The IC50 for inhibition of GM-CSF induced IL-8 expression (U937 cells), experiment C in experiment [4] is 2.2 nM and 343 ng/ml. Further, the EC50 in experiment [5] was 433 pM.
